Data published in patent EP4717706A1.

B1: AVR25c with G314D, E399K, E445K (receptor)
chain: MGSADESDQITLPKHEAQLKVYVLLVPPKGEASTYDWQLITHPRDYSGEMEGEHSQILKLSNLTPGLYEYRAVVEGQNAHSEGYVNVTVKPGPRKNRPPIAIVSPQFQEISLPTTSAVIDGSQSTDDDKIVQYHWKELKGPLREEKISEDTPILKLSNLVPGNYTFRLTVVDTDGATDSTTADLTVNKAVDHHHHHH
B2: AVR25c with G314D, V499I (receptor)
chain: MGSADESDQITLPKHEAQLKVYVLLVPPKGEASTYDWQLITHPRDYSGEMEGEHSQILKLSNLTPGLYEYRAVVEGQNAHSEGYVNVTVEPGPRKNRPPIAIVSPQFQEISLPTTSAVIDGSQSTDDDKIVQYHWEELKGPLREEKISEDTPILKLSNLVPGNYTFRLTVVDTDGATDSTTADLTVNKAIDHHHHHH
B3: AVR25c with V(D)317G, T478I (receptor)
chain: MGSAGESGQITLPKHEAQLKVYVLLVPPKGEASTYDWQLITHPRDYSGEMEGEHSQILKLSNLTPGLYEYRAVVEGQNAHSEGYVNVTVEPGPRKNRPPIAIVSPQFQEISLPTTSAVIDGSQSTDDDKIVQYHWEELKGPLREEKISEDTPILKLSNLVPGNYTFRLIVVDTDGATDSTTADLTVNKAVDHHHHHH
B4: AVR25c with Q318R, E362D, E378G (receptor)
chain: MGSAGESDRITLPKHEAQLKVYVLLVPPKGEASTYDWQLITHPRDYSGEMEGDHSQILKLSNLTPGLYGYRAVVEGQNAHSEGYVNVTVEPGPRKNRPPIAIVSPQFQEISLPTTSAVIDGSQSTDDDKIVQYHWEELKGPLREEKISEDTPILKLSNLVPGNYTFRLTVVDTDGATDSTTADLTVNKAVDHHHHHH
B5: AVR25c with P322A, T350A, L421P (receptor)
chain: MGSAGESDQITLAKHEAQLKVYVLLVPPKGEASTYDWQLIAHPRDYSGEMEGEHSQILKLSNLTPGLYEYRAVVEGQNAHSEGYVNVTVEPGPRKNRPPIAIVSPQFQEISPPTTSAVIDGSQSTDDDKIVQYHWEELKGPLREEKISEDTPILKLSNLVPGNYTFRLTVVDTDGATDSTTADLTVNKAVDHHHHHH
B6: AVR25c with E325V, D437V (receptor)
chain: MGSAGESDQITLPKHVAQLKVYVLLVPPKGEASTYDWQLITHPRDYSGEMEGEHSQILKLSNLTPGLYEYRAVVEGQNAHSEGYVNVTVEPGPRKNRPPIAIVSPQFQEISLPTTSAVIDGSQSTDDVKIVQYHWEELKGPLREEKISEDTPILKLSNLVPGNYTFRLTVVDTDGATDSTTADLTVNKAVDHHHHHH
B7: AVR25c with Q347R, T486A, D500G (receptor)
chain: MGSAGESDQITLPKHEAQLKVYVLLVPPKGEASTYDWRLITHPRDYSGEMEGEHSQILKLSNLTPGLYEYRAVVEGQNAHSEGYVNVTVEPGPRKNRPPIAIVSPQFQEISLPTTSAVIDGSQSTDDDKIVQYHWEELKGPLREEKISEDTPILKLSNLVPGNYTFRLTVVDTDGAADSTTADLTVNKAVGHHHHHH
B8: AVR25c with H363P, K497E (receptor)
chain: MGSAGESDQITLPKHEAQLKVYVLLVPPKGEASTYDWQLITHPRDYSGEMEGEPSQILKLSNLTPGLYEYRAVVEGQNAHSEGYVNVTVEPGPRKNRPPIAIVSPQFQEISLPTTSAVIDGSQSTDDDKIVQYHWEELKGPLREEKISEDTPILKLSNLVPGNYTFRLTVVDTDGATDSTTADLTVNEAVDHHHHHH
B9: AVR25c with E378G, V398A (receptor)
chain: MGSAGESDQITLPKHEAQLKVYVLLVPPKGEASTYDWQLITHPRDYSGEMEGEHSQILKLSNLTPGLYGYRAVVEGQNAHSEGYVNVTAEPGPRKNRPPIAIVSPQFQEISLPTTSAVIDGSQSTDDDKIVQYHWEELKGPLREEKISEDTPILKLSNLVPGNYTFRLTVVDTDGATDSTTADLTVNKAVDHHHHHH
B10: AVR25c with F(Y)379N (receptor)
chain: MGSAGESDQITLPKHEAQLKVYVLLVPPKGEASTYDWQLITHPRDYSGEMEGEHSQILKLSNLTPGLYENRAVVEGQNAHSEGYVNVTVEPGPRKNRPPIAIVSPQFQEISLPTTSAVIDGSQSTDDDKIVQYHWEELKGPLREEKISEDTPILKLSNLVPGNYTFRLTVVDTDGATDSTTADLTVNKAVDHHHHHH
B11: AVR25c with G392E, S433G, A485V, L493M, N496D (receptor)
chain: MGSAGESDQITLPKHEAQLKVYVLLVPPKGEASTYDWQLITHPRDYSGEMEGEHSQILKLSNLTPGLYEYRAVVEGQNAHSEEYVNVTVEPGPRKNRPPIAIVSPQFQEISLPTTSAVIDGSQGTDDDKIVQYHWEELKGPLREEKISEDTPILKLSNLVPGNYTFRLTVVDTDGVTDSTTADMTVDKAVDHHHHHH
B12: AVR25c with R406H, F416L (receptor)
chain: MGSAGESDQITLPKHEAQLKVYVLLVPPKGEASTYDWQLITHPRDYSGEMEGEHSQILKLSNLTPGLYEYRAVVEGQNAHSEGYVNVTVEPGPRKNHPPIAIVSPQLQEISLPTTSAVIDGSQSTDDDKIVQYHWEELKGPLREEKISEDTPILKLSNLVPGNYTFRLTVVDTDGATDSTTADLTVNKAVDHHHHHH
B13: AVR25c with Q415R, S457R (receptor)
chain: MGSAGESDQITLPKHEAQLKVYVLLVPPKGEASTYDWQLITHPRDYSGEMEGEHSQILKLSNLTPGLYEYRAVVEGQNAHSEGYVNVTVEPGPRKNRPPIAIVSPRFQEISLPTTSAVIDGSQSTDDDKIVQYHWEELKGPLREEKIREDTPILKLSNLVPGNYTFRLTVVDTDGATDSTTADLTVNKAVDHHHHHH
B14: AVR25c with T434S (receptor)
chain: MGSAGESDQITLPKHEAQLKVYVLLVPPKGEASTYDWQLITHPRDYSGEMEGEHSQILKLSNLTPGLYEYRAVVEGQNAHSEGYVNVTVEPGPRKNRPPIAIVSPQFQEISLPTTSAVIDGSQSSDDDKIVQYHWEELKGPLREEKISEDTPILKLSNLVPGNYTFRLTVVDTDGATDSTTADLTVNKAVDHHHHHH
B15: AVR21 with V412A (receptor)
chain: MGSAGESDQITLPKHEAQLNVYVLLVPPKGEASTYDWQLITHPRDYSGEMEGEHSQILKLSNLTPGLYEYRAVVEGQNAHSEGYVNVTVEPEPRKNRPPIAIASPQFQEISLPTTSTVIDGSQSTDDDKIVQYHWEELKGPLREEKISEDTAILKLSQLVPGNYTFRLTVVDTDGATDSTTADLTVNKAVDHHHHHH
B16: AVR21 with T426A (receptor)
chain: MGSAGESDQITLPKHEAQLNVYVLLVPPKGEASTYDWQLITHPRDYSGEMEGEHSQILKLSNLTPGLYEYRAVVEGQNAHSEGYVNVTVEPEPRKNRPPIAIVSPQFQEISLPTTSAVIDGSQSTDDDKIVQYHWEELKGPLREEKISEDTAILKLSQLVPGNYTFRLTVVDTDGATDSTTADLTVNKAVDHHHHHH
B17: AVR21 with D500N (receptor)
chain: MGSAGESDQITLPKHEAQLNVYVLLVPPKGEASTYDWQLITHPRDYSGEMEGEHSQILKLSNLTPGLYEYRAVVEGQNAHSEGYVNVTVEPEPRKNRPPIAIVSPQFQEISLPTTSTVIDGSQSTDDDKIVQYHWEELKGPLREEKISEDTAILKLSQLVPGNYTFRLTVVDTDGATDSTTADLTVNKAVNHHHHHH
B18: AVR21 with L328P, V394A (receptor)
chain: MGSAGESDQITLPKHEAQPNVYVLLVPPKGEASTYDWQLITHPRDYSGEMEGEHSQILKLSNLTPGLYEYRAVVEGQNAHSEGYANVTVEPEPRKNRPPIAIVSPQFQEISLPTTSTVIDGSQSTDDDKIVQYHWEELKGPLREEKISEDTAILKLSQLVPGNYTFRLTVVDTDGATDSTTADLTVNKAVDHHHHHH
B19: AVR21 with N329K, E401G (receptor)
chain: MGSAGESDQITLPKHEAQLKVYVLLVPPKGEASTYDWQLITHPRDYSGEMEGEHSQILKLSNLTPGLYEYRAVVEGQNAHSEGYVNVTVEPGPRKNRPPIAIVSPQFQEISLPTTSTVIDGSQSTDDDKIVQYHWEELKGPLREEKISEDTAILKLSQLVPGNYTFRLTVVDTDGATDSTTADLTVNKAVDHHHHHH
B20: AVR21 with N329S, K368R, V412A (receptor)
chain: MGSAGESDQITLPKHEAQLSVYVLLVPPKGEASTYDWQLITHPRDYSGEMEGEHSQILRLSNLTPGLYEYRAVVEGQNAHSEGYVNVTVEPEPRKNRPPIAIASPQFQEISLPTTSTVIDGSQSTDDDKIVQYHWEELKGPLREEKISEDTAILKLSQLVPGNYTFRLTVVDTDGATDSTTADLTVNKAVDHHHHHH
B21: AVR21 with V332A (receptor)
chain: MGSAGESDQITLPKHEAQLNVYALLVPPKGEASTYDWQLITHPRDYSGEMEGEHSQILKLSNLTPGLYEYRAVVEGQNAHSEGYVNVTVEPEPRKNRPPIAIVSPQFQEISLPTTSTVIDGSQSTDDDKIVQYHWEELKGPLREEKISEDTAILKLSQLVPGNYTFRLTVVDTDGATDSTTADLTVNKAVDHHHHHH
B22: AVR21 with E(V)335A (receptor)
chain: MGSAGESDQITLPKHEAQLNVYVLLAPPKGEASTYDWQLITHPRDYSGEMEGEHSQILKLSNLTPGLYEYRAVVEGQNAHSEGYVNVTVEPEPRKNRPPIAIVSPQFQEISLPTTSTVIDGSQSTDDDKIVQYHWEELKGPLREEKISEDTAILKLSQLVPGNYTFRLTVVDTDGATDSTTADLTVNKAVDHHHHHH
B23: AVR21 with E(V)335A, V394I (receptor)
chain: MGSAGESDQITLPKHEAQLNVYVLLAPPKGEASTYDWQLITHPRDYSGEMEGEHSQILKLSNLTPGLYEYRAVVEGQNAHSEGYINVTVEPEPRKNRPPIAIVSPQFQEISLPTTSTVIDGSQSTDDDKIVQYHWEELKGPLREEKISEDTAILKLSQLVPGNYTFRLTVVDTDGATDSTTADLTVNKAVDHHHHHH

Molecular target: VLP2 (virus-like particles, capsid protein particles of AAV serotype 2) (AAV serotype 2 (AAV2)) (UniProt P03135)
Chain of UniProt P03135 (P03135 whole entry): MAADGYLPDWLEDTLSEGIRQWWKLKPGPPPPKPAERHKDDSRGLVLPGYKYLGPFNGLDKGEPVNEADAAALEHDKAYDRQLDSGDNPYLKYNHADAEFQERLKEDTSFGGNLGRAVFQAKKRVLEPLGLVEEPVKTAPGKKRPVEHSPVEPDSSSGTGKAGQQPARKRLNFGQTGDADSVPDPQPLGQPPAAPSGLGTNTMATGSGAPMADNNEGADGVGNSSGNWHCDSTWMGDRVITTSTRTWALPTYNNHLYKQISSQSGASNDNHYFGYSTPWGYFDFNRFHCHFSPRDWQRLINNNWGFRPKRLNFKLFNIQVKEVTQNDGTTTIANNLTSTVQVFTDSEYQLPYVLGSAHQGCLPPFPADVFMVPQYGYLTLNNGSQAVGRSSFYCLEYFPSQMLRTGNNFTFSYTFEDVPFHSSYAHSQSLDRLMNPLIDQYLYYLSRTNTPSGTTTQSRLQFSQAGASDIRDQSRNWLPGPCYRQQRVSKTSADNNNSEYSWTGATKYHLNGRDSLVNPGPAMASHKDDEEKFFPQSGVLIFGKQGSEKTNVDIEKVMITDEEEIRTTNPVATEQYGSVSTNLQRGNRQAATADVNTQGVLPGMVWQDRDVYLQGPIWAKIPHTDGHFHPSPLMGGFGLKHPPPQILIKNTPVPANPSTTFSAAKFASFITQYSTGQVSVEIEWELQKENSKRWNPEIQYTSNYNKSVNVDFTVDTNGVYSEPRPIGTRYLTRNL
Test: ELISA on immobilised VLP2 (culture supernatant); A450 after 1:1 1 M NaOH, 15 min, 30°C divided by A450 untreated

Point of comparison: B12, Remaining activity [%] 41.9%. Against it:
- B1 — higher, 62.5%
- B2 — higher, 79.1%
- B3 — higher, 82%
- B4 — higher, 66.1%
- B5 — higher, 49.6%
- B6 — higher, 76.7%
- B7 — higher, 72.8%
- B8 — higher, 69.6%
- B9 — higher, 67.5%
- B10 — higher, 55.1%
- B11 — higher, 61%
- B13 — higher, 55.1%
- B14 — higher, 77.3%

Molecular target: VLP2 (virus-like particles, capsid protein particles of AAV serotype 2) (AAV serotype 2 (AAV2)) (UniProt P03135)
Test: ELISA on immobilised VLP2 (culture supernatant, anti-His detection); A450 after 1:1 0.5 M NaOH, 30 min, 30°C divided by A450 untreated

Point of comparison: B16, Remaining activity [%] 43.5%. Against it:
- B15 — lower, 32.5%
- B17 — lower, 39.3%
- B18 — lower, 40.5%
- B19 — lower, 43.1%
- B20 — lower, 37.1%
- B21 — higher, 57.6%
- B22 — lower, 35.8%
- B23 — lower, 37.3%
